Results published in patent US20160355591A1.

Assays:
[1] = target: HLA-DR (human leukocyte antigen-DR) on human lymphoma and leukemia cells and human lymphocytes (human); assay: indirect flow cytometry, SU-DHL-6 cells, FITC-GAH Fc 2nd Ab; none 4.6; negative control antibody
[2] = target: HLA-DR (human leukocyte antigen-DR) on human lymphoma and leukemia cells and human lymphocytes (human); assay: indirect flow cytometry, Raji cells, FITC-GAH Fc 2nd Ab; none 6.9; negative control antibody
[3] = target: HLA-DR (human leukocyte antigen-DR) on human lymphoma and leukemia cells and human lymphocytes (human); assay: indirect flow cytometry, Namalwa cells, FITC-GAH 2nd Ab; none 2.52; control antibody (anti-CEA)
[4] = target: HLA-DR (L243 antigen) on canine lymphocytes and canine lymphoma cells (dog); assay: flow cytometry, canine lymphoma aspirate 150836; none 3.2; control antibody
[5] = target: HLA-DR (human leukocyte antigen-DR) on human lymphoma and leukemia cells and human lymphocytes (human); assay: indirect FACS, Raji cells, FITC-GAH Fc 2nd Ab; none 6.8; control antibody
[6] = target: HLA-DR (human leukocyte antigen-DR) on human lymphoma and leukemia cells and human lymphocytes (human); assay: indirect FACS, SU-DHL-6 cells, FITC-GAH Fc 2nd Ab; none 4.6; control antibody
[7] = target: HLA-DR (human leukocyte antigen-DR) on human lymphoma and leukemia cells and human lymphocytes (human); assay: indirect FACS, Namalwa cells, FITC-GAH Fc 2nd Ab; none 2.5; control antibody
[8] = target: HLA-DR (human leukocyte antigen-DR) on human lymphoma and leukemia cells and human lymphocytes (human); assay: indirect FACS, Ramos cells, FITC-GAH Fc 2nd Ab; none 3.1; control antibody
[9] = target: HLA-DR (human leukocyte antigen-DR) on human lymphoma and leukemia cells and human lymphocytes (human); assay: indirect flow cytometry, Daudi cells, FITC-GAH Fc 2nd Ab; none 3.2; negative control antibody
[10] = target: HLA-DR (human leukocyte antigen-DR) on human lymphoma and leukemia cells and human lymphocytes (human); assay: indirect flow cytometry, Namalwa cells, FITC-GAH Fc 2nd Ab; none 2.6; negative control antibody
[11] = target: HLA-DR (human leukocyte antigen-DR) on human lymphoma and leukemia cells and human lymphocytes (human); assay: indirect flow cytometry, WSU-FSCCL cells, FITC-GAH Fc 2nd Ab; none 2.7; negative control antibody
[12] = target: HLA-DR (L243 antigen) on canine lymphocytes and canine lymphoma cells (dog); assay: flow cytometry, dog lymphoma aspirate; none 4.48; control antibody
[13] = target: HLA-DR (human leukocyte antigen-DR) on human lymphoma and leukemia cells and human lymphocytes (human); assay: indirect flow cytometry, RL cells, FITC-GAH Fc 2nd Ab; none 2.4; negative control antibody
[14] = target: HLA-DR (L243 antigen) on canine lymphocytes and canine lymphoma cells (dog); assay: flow cytometry, canine lymphoma aspirate 150836; none 4.5; control antibody
[15] = target: HLA-DR (human leukocyte antigen-DR) on human lymphoma and leukemia cells and human lymphocytes (human); assay: indirect FACS, WSU-FSCCL cells, FITC-GAH Fc 2nd Ab; none 2.6; control antibody
[16] = target: HLA-DR (human leukocyte antigen-DR) on human lymphoma and leukemia cells and human lymphocytes (human); assay: indirect flow cytometry, Ramos cells, FITC-GAH Fc 2nd Ab; none 3.1; negative control antibody
[17] = target: HLA-DR (human leukocyte antigen-DR) on human lymphoma and leukemia cells and human lymphocytes (human); assay: indirect FACS, Daudi cells, FITC-GAH Fc 2nd Ab; none 3.1; control antibody
[18] = target: HLA-DR (L243 antigen) on canine lymphocytes and canine lymphoma cells (dog); assay: flow cytometry, dog lymphoma aspirate; none 3.24; control antibody

B1: hMN-14 (labetuzumab, humanized anti-carcinoembryonic antigen IgG1) (antibody, INN chains, looked up, V domains shown)
VH: EVQLVESGGGVVQPGRSLRLSCSASGFDFTTYWMSWVRQAPGKGLEWIGEIHPDSSTINYAPSLKDRFTISRDNAKNTLFLQMDSLRPEDTGVYFCASLYFGFPWFAYWGQGTPVTVSS
VL: DIQLTQSPSSLSASVGDRVTITCKASQDVGTSVAWYQQKPGKAPKLLIYWTSTRHTGVPSRFSGSGSGTDFTFTISSLQPEDIATYYCQQYSLYRSFGQGTKVEIKR
A geometric mean fluorescence [1] of 4.9, a geometric mean fluorescence [2] of 7 and a geometric mean fluorescence [3] of 2.49 were found for B1 in this work. The mean FL [4] was 3.2, the geometric mean fluorescence [5] was 6.96 and the geometric mean fluorescence [6] was 4.94. The geometric mean fluorescence [7] was 2.36, the geometric mean fluorescence [8] was 3.13 and the geometric mean fluorescence [9] was 3.2. It also gave a geometric mean fluorescence [10] of 2.4, a geometric mean fluorescence [11] of 2.7 and a % Positive [12] of 4.63%. It also gave a geometric mean fluorescence [13] of 2.8, a % Positive [14] of 4.6% and a geometric mean fluorescence [15] of 2.66. The geometric mean fluorescence [16] was 3.1, the geometric mean fluorescence [17] was 3.16 and the mean FL [18] was 3.24.
